This passage reports percent positive PBMC results from patent publication US20190194326A1.

Assay [1] deals with CD4 on chimp PBMC cells (chimp) (UniProt P16004). Put plainly: flow cytometry, chimp PBMC X282, single label control Leu3a-PE. For orientation: A flow cytometer gives signals particle by particle.
Assay [2] shares this target. Briefly: flow cytometry, chimp PBMC X301, single label control Leu3a-PE.
The target is the same in assay [3]. Put plainly: flow cytometry, chimp PBMC X282; 1st Leu3a binding, 2nd B4 exposure; Leu3a+ B4- population.
Assay [4] shares this target. Briefly: flow cytometry, chimp PBMC X301; 1st Leu3a binding, 2nd B4 exposure; Leu3a+ B4- population.
For assay [5] the target is unchanged. Briefly: flow cytometry, chimp PBMC X282; 1st B4 binding, 2nd Leu3a exposure; Leu3a+ B4- population; competitor B4 pre-bound.
Assay [6] has the same target. Briefly: flow cytometry, chimp PBMC X301; 1st B4 binding, 2nd Leu3a exposure; Leu3a+ B4- population; competitor B4 pre-bound.
Assay [7] shares this target. Put plainly: flow cytometry, chimp PBMC X282; 1st B4 binding, 2nd Leu3a exposure; double stained population; competitor B4 pre-bound.
For assay [8] the target is unchanged. Put plainly: flow cytometry, chimp PBMC X301; 1st B4 binding, 2nd Leu3a exposure; double stained population; competitor B4 pre-bound.

In the case of Leu3a (antibody), the percent positive PBMC in assay [1] was 25.5%; in assay [2] it was 44%; in assay [3] it was 0.1%; in assay [4] it was 0.3%; in assay [5], 0%; in assay [6], 0%. Further, the percent positive PBMC in assay [7] was 1.2%; in assay [8], 3%.
